# Assay results as given in US20230279118A1 (published 2023).
# Values joined by “and” are separate entries in the source; they are usually repeats but may differ in a detail not shown here. Equal entries are not always repeated.
# Molecular target: T1, canine FcRn (canine)
# T1 construct: Injected in solution as SPR analyte
# Assay: SPR, pH 5.5, FcRn 100-800 nM over captured Fc
Binder,Kd [nM],koff [s⁻¹],kon [M⁻¹ s⁻¹]
canine IgG.B Fc variant N434H with SASA tag (Fc fusion) APEMLGGPSVFIFPPKPKDTLLIARTPEVTCVVVDLDPEDPEVQISWFVDGKQMQTAKTQPREEQFNGTYRVVSVLPIGHQDWLKGKQFTCKVNNKALPSPIERTISKARGQAHQPSVYVLPPSREELSKNTVSLTCLIKDFFPPDIDVEWQSNGQQEPESKYRTTPPQLDEDGSYFLYSKLSVDKSRWQRGDTFICAVMHEALHHHYTQESLSHSPGK,247,0.102,411000
canine IgG.B Fc YTE variant (L252Y/A254T/T256E) with SASA tag (Fc fusion) APEMLGGPSVFIFPPKPKDTLYITREPEVTCVVVDLDPEDPEVQISWFVDGKQMQTAKTQPREEQFNGTYRVVSVLPIGHQDWLKGKQFTCKVNNKALPSPIERTISKARGQAHQPSVYVLPPSREELSKNTVSLTCLIKDFFPPDIDVEWQSNGQQEPESKYRTTPPQLDEDGSYFLYSKLSVDKSRWQRGDTFICAVMHEALHNHYTQESLSHSPGK,184,0.046,250000

# Now from value to binder:
Kd [nM],koff [s⁻¹],kon [M⁻¹ s⁻¹],Binder
29.1,0.0151,520000,canine IgG.B Fc variant N434Y with SASA tag (Fc fusion) APEMLGGPSVFIFPPKPKDTLLIARTPEVTCVVVDLDPEDPEVQISWFVDGKQMQTAKTQPREEQFNGTYRVVSVLPIGHQDWLKGKQFTCKVNNKALPSPIERTISKARGQAHQPSVYVLPPSREELSKNTVSLTCLIKDFFPPDIDVEWQSNGQQEPESKYRTTPPQLDEDGSYFLYSKLSVDKSRWQRGDTFICAVMHEALHYHYTQESLSHSPGK
101,0.045,446000,canine IgG.B Fc variant N434W with SASA tag (Fc fusion) APEMLGGPSVFIFPPKPKDTLLIARTPEVTCVVVDLDPEDPEVQISWFVDGKQMQTAKTQPREEQFNGTYRVVSVLPIGHQDWLKGKQFTCKVNNKALPSPIERTISKARGQAHQPSVYVLPPSREELSKNTVSLTCLIKDFFPPDIDVEWQSNGQQEPESKYRTTPPQLDEDGSYFLYSKLSVDKSRWQRGDTFICAVMHEALHWHYTQESLSHSPGK

# Molecular target: T1, canine FcRn
# Assay: SPR, pH 5.5, FcRn 200 nM over captured Fc
Binder,Kd,koff,kon
canine IgG.B Fc variant N434A with SASA tag (Fc fusion) APEMLGGPSVFIFPPKPKDTLLIARTPEVTCVVVDLDPEDPEVQISWFVDGKQMQTAKTQPREEQFNGTYRVVSVLPIGHQDWLKGKQFTCKVNNKALPSPIERTISKARGQAHQPSVYVLPPSREELSKNTVSLTCLIKDFFPPDIDVEWQSNGQQEPESKYRTTPPQLDEDGSYFLYSKLSVDKSRWQRGDTFICAVMHEALHAHYTQESLSHSPGK,573 nM and 629 nM,0.156 s⁻¹ and 0.164 s⁻¹,272000 M⁻¹ s⁻¹ and 261000 M⁻¹ s⁻¹
canine IgG.B Fc variant N434S with SASA tag (Fc fusion) APEMLGGPSVFIFPPKPKDTLLIARTPEVTCVVVDLDPEDPEVQISWFVDGKQMQTAKTQPREEQFNGTYRVVSVLPIGHQDWLKGKQFTCKVNNKALPSPIERTISKARGQAHQPSVYVLPPSREELSKNTVSLTCLIKDFFPPDIDVEWQSNGQQEPESKYRTTPPQLDEDGSYFLYSKLSVDKSRWQRGDTFICAVMHEALHSHYTQESLSHSPGK,924 nM and 1050 nM,0.207 s⁻¹ and 0.209 s⁻¹,225000 M⁻¹ s⁻¹ and 199000 M⁻¹ s⁻¹

# Other lines, results leading:
Kd,koff,kon,Binder
15.9 nM,0.00968 s⁻¹,607000 M⁻¹ s⁻¹,canine IgG.B Fc variant N434Y with SASA tag (Fc fusion) APEMLGGPSVFIFPPKPKDTLLIARTPEVTCVVVDLDPEDPEVQISWFVDGKQMQTAKTQPREEQFNGTYRVVSVLPIGHQDWLKGKQFTCKVNNKALPSPIERTISKARGQAHQPSVYVLPPSREELSKNTVSLTCLIKDFFPPDIDVEWQSNGQQEPESKYRTTPPQLDEDGSYFLYSKLSVDKSRWQRGDTFICAVMHEALHYHYTQESLSHSPGK
40.4 nM and 75.7 nM,,,canine IgG.B Fc variant N434W with SASA tag (Fc fusion) APEMLGGPSVFIFPPKPKDTLLIARTPEVTCVVVDLDPEDPEVQISWFVDGKQMQTAKTQPREEQFNGTYRVVSVLPIGHQDWLKGKQFTCKVNNKALPSPIERTISKARGQAHQPSVYVLPPSREELSKNTVSLTCLIKDFFPPDIDVEWQSNGQQEPESKYRTTPPQLDEDGSYFLYSKLSVDKSRWQRGDTFICAVMHEALHWHYTQESLSHSPGK

# Molecular target: T1, canine FcRn
# Assay: SPR, pH 5.5, FcRn 400 nM over captured Fc
Binder,Kd,kon,koff
canine IgG.B Fc variant M428A with SASA tag (Fc fusion) APEMLGGPSVFIFPPKPKDTLLIARTPEVTCVVVDLDPEDPEVQISWFVDGKQMQTAKTQPREEQFNGTYRVVSVLPIGHQDWLKGKQFTCKVNNKALPSPIERTISKARGQAHQPSVYVLPPSREELSKNTVSLTCLIKDFFPPDIDVEWQSNGQQEPESKYRTTPPQLDEDGSYFLYSKLSVDKSRWQRGDTFICAVAHEALHNHYTQESLSHSPGK,723 nM and 1670 nM,234000 M⁻¹ s⁻¹ and 318000 M⁻¹ s⁻¹,
canine IgG.B Fc variant L252A with SASA tag (Fc fusion) APEMLGGPSVFIFPPKPKDTLAIARTPEVTCVVVDLDPEDPEVQISWFVDGKQMQTAKTQPREEQFNGTYRVVSVLPIGHQDWLKGKQFTCKVNNKALPSPIERTISKARGQAHQPSVYVLPPSREELSKNTVSLTCLIKDFFPPDIDVEWQSNGQQEPESKYRTTPPQLDEDGSYFLYSKLSVDKSRWQRGDTFICAVMHEALHNHYTQESLSHSPGK,292 nM and 240 nM,,
canine IgG.B Fc variant H433A with SASA tag (Fc fusion) APEMLGGPSVFIFPPKPKDTLLIARTPEVTCVVVDLDPEDPEVQISWFVDGKQMQTAKTQPREEQFNGTYRVVSVLPIGHQDWLKGKQFTCKVNNKALPSPIERTISKARGQAHQPSVYVLPPSREELSKNTVSLTCLIKDFFPPDIDVEWQSNGQQEPESKYRTTPPQLDEDGSYFLYSKLSVDKSRWQRGDTFICAVMHEALANHYTQESLSHSPGK,266 nM and 359 nM,,0.229 s⁻¹ and 0.0997 s⁻¹
canine IgG.B Fc variant N434A with SASA tag (Fc fusion) APEMLGGPSVFIFPPKPKDTLLIARTPEVTCVVVDLDPEDPEVQISWFVDGKQMQTAKTQPREEQFNGTYRVVSVLPIGHQDWLKGKQFTCKVNNKALPSPIERTISKARGQAHQPSVYVLPPSREELSKNTVSLTCLIKDFFPPDIDVEWQSNGQQEPESKYRTTPPQLDEDGSYFLYSKLSVDKSRWQRGDTFICAVMHEALHAHYTQESLSHSPGK,457 nM and 494 nM,518000 M⁻¹ s⁻¹ and 966000 M⁻¹ s⁻¹,0.237 s⁻¹ and 0.477 s⁻¹
canine IgG.B Fc variant A254S with SASA tag (Fc fusion) APEMLGGPSVFIFPPKPKDTLLISRTPEVTCVVVDLDPEDPEVQISWFVDGKQMQTAKTQPREEQFNGTYRVVSVLPIGHQDWLKGKQFTCKVNNKALPSPIERTISKARGQAHQPSVYVLPPSREELSKNTVSLTCLIKDFFPPDIDVEWQSNGQQEPESKYRTTPPQLDEDGSYFLYSKLSVDKSRWQRGDTFICAVMHEALHNHYTQESLSHSPGK,340 nM and 317 nM,,
canine IgG.B Fc variant I308A with SASA tag (Fc fusion) APEMLGGPSVFIFPPKPKDTLLIARTPEVTCVVVDLDPEDPEVQISWFVDGKQMQTAKTQPREEQFNGTYRVVSVLPAGHQDWLKGKQFTCKVNNKALPSPIERTISKARGQAHQPSVYVLPPSREELSKNTVSLTCLIKDFFPPDIDVEWQSNGQQEPESKYRTTPPQLDEDGSYFLYSKLSVDKSRWQRGDTFICAVMHEALHNHYTQESLSHSPGK,472 nM and 563 nM,357000 M⁻¹ s⁻¹ and 345000 M⁻¹ s⁻¹,0.169 s⁻¹ and 0.194 s⁻¹
canine IgG.B Fc variant G309A with SASA tag (Fc fusion) APEMLGGPSVFIFPPKPKDTLLIARTPEVTCVVVDLDPEDPEVQISWFVDGKQMQTAKTQPREEQFNGTYRVVSVLPIAHQDWLKGKQFTCKVNNKALPSPIERTISKARGQAHQPSVYVLPPSREELSKNTVSLTCLIKDFFPPDIDVEWQSNGQQEPESKYRTTPPQLDEDGSYFLYSKLSVDKSRWQRGDTFICAVMHEALHNHYTQESLSHSPGK,245 nM and 294 nM,,
canine IgG.B Fc variant K315A with SASA tag (Fc fusion) APEMLGGPSVFIFPPKPKDTLLIARTPEVTCVVVDLDPEDPEVQISWFVDGKQMQTAKTQPREEQFNGTYRVVSVLPIGHQDWLAGKQFTCKVNNKALPSPIERTISKARGQAHQPSVYVLPPSREELSKNTVSLTCLIKDFFPPDIDVEWQSNGQQEPESKYRTTPPQLDEDGSYFLYSKLSVDKSRWQRGDTFICAVMHEALHNHYTQESLSHSPGK,422 nM and 548 nM,,
canine IgG.B Fc variant D378A with SASA tag (Fc fusion) APEMLGGPSVFIFPPKPKDTLLIARTPEVTCVVVDLDPEDPEVQISWFVDGKQMQTAKTQPREEQFNGTYRVVSVLPIGHQDWLKGKQFTCKVNNKALPSPIERTISKARGQAHQPSVYVLPPSREELSKNTVSLTCLIKDFFPPDIAVEWQSNGQQEPESKYRTTPPQLDEDGSYFLYSKLSVDKSRWQRGDTFICAVMHEALHNHYTQESLSHSPGK,673 nM and 592 nM,272000 M⁻¹ s⁻¹ and 306000 M⁻¹ s⁻¹,0.183 s⁻¹ and 0.181 s⁻¹

# Continued, values first:
Kd,kon,koff,Binder
393 nM and 876 nM,,0.407 s⁻¹ and 0.213 s⁻¹,canine IgG.B Fc variant Y436A with SASA tag (Fc fusion) APEMLGGPSVFIFPPKPKDTLLIARTPEVTCVVVDLDPEDPEVQISWFVDGKQMQTAKTQPREEQFNGTYRVVSVLPIGHQDWLKGKQFTCKVNNKALPSPIERTISKARGQAHQPSVYVLPPSREELSKNTVSLTCLIKDFFPPDIDVEWQSNGQQEPESKYRTTPPQLDEDGSYFLYSKLSVDKSRWQRGDTFICAVMHEALHNHATQESLSHSPGK
447 nM and 298 nM,,,canine IgG.B Fc variant T256A with SASA tag (Fc fusion) APEMLGGPSVFIFPPKPKDTLLIARAPEVTCVVVDLDPEDPEVQISWFVDGKQMQTAKTQPREEQFNGTYRVVSVLPIGHQDWLKGKQFTCKVNNKALPSPIERTISKARGQAHQPSVYVLPPSREELSKNTVSLTCLIKDFFPPDIDVEWQSNGQQEPESKYRTTPPQLDEDGSYFLYSKLSVDKSRWQRGDTFICAVMHEALHNHYTQESLSHSPGK
335 nM and 328 nM,,,canine IgG.B Fc variant T250A with SASA tag (Fc fusion) APEMLGGPSVFIFPPKPKDALLIARTPEVTCVVVDLDPEDPEVQISWFVDGKQMQTAKTQPREEQFNGTYRVVSVLPIGHQDWLKGKQFTCKVNNKALPSPIERTISKARGQAHQPSVYVLPPSREELSKNTVSLTCLIKDFFPPDIDVEWQSNGQQEPESKYRTTPPQLDEDGSYFLYSKLSVDKSRWQRGDTFICAVMHEALHNHYTQESLSHSPGK
341 nM and 257 nM,,,canine IgG.B Fc variant Q285A with SASA tag (Fc fusion) APEMLGGPSVFIFPPKPKDTLLIARTPEVTCVVVDLDPEDPEVQISWFVDGKQMATAKTQPREEQFNGTYRVVSVLPIGHQDWLKGKQFTCKVNNKALPSPIERTISKARGQAHQPSVYVLPPSREELSKNTVSLTCLIKDFFPPDIDVEWQSNGQQEPESKYRTTPPQLDEDGSYFLYSKLSVDKSRWQRGDTFICAVMHEALHNHYTQESLSHSPGK
464 nM and 569 nM,422000 M⁻¹ s⁻¹ and 533000 M⁻¹ s⁻¹,0.196 s⁻¹ and 0.304 s⁻¹,canine IgG.B Fc variant T286A with SASA tag (Fc fusion) APEMLGGPSVFIFPPKPKDTLLIARTPEVTCVVVDLDPEDPEVQISWFVDGKQMQAAKTQPREEQFNGTYRVVSVLPIGHQDWLKGKQFTCKVNNKALPSPIERTISKARGQAHQPSVYVLPPSREELSKNTVSLTCLIKDFFPPDIDVEWQSNGQQEPESKYRTTPPQLDEDGSYFLYSKLSVDKSRWQRGDTFICAVMHEALHNHYTQESLSHSPGK
325 nM and 338 nM,,,canine IgG.B Fc variant P307A with SASA tag (Fc fusion) APEMLGGPSVFIFPPKPKDTLLIARTPEVTCVVVDLDPEDPEVQISWFVDGKQMQTAKTQPREEQFNGTYRVVSVLAIGHQDWLKGKQFTCKVNNKALPSPIERTISKARGQAHQPSVYVLPPSREELSKNTVSLTCLIKDFFPPDIDVEWQSNGQQEPESKYRTTPPQLDEDGSYFLYSKLSVDKSRWQRGDTFICAVMHEALHNHYTQESLSHSPGK
368 nM and 370 nM,2.43e+06 M⁻¹ s⁻¹ and 1.34e+06 M⁻¹ s⁻¹,0.894 s⁻¹ and 0.496 s⁻¹,canine IgG.B Fc variant Q311A with SASA tag (Fc fusion) APEMLGGPSVFIFPPKPKDTLLIARTPEVTCVVVDLDPEDPEVQISWFVDGKQMQTAKTQPREEQFNGTYRVVSVLPIGHADWLKGKQFTCKVNNKALPSPIERTISKARGQAHQPSVYVLPPSREELSKNTVSLTCLIKDFFPPDIDVEWQSNGQQEPESKYRTTPPQLDEDGSYFLYSKLSVDKSRWQRGDTFICAVMHEALHNHYTQESLSHSPGK
